{"source": "patent US20140031526A1", "about": "(YISSUM RESEARCH DEVELOPMENT COMPANY OF THE HEBREW …, published 2014)", "target": "the molecule itself", "assay": "FPLC gel filtration before and after sonication (self-association)", "data": [{"protein": "6H-15mer-CBD fusion protein (dragline spider silk 15mer fused to Clostridium cellulovorans CBDclos, with His tags and S-tag) (other, Expressed in E. coli BL21(DE3) from pET30a and purified on Ni-NTA; also called Silk-CBD; 6H-Silk-CBD) MHHHHHHSSGLVPRGSGMKETAAAKFERQHMDSPDLGTDDDDKAMASGRGGLGGQGAGAAAAAGGAGQGGYGGLGSQGTSGRGGLGGQGAGAAAAAGGAGQGGYGGLGSQGTSGRGGLGGQGAGAAAAAGGAGQGGYGGLGSQGTSGRGGLGGQGAGAAAAAGGAGQGGYGGLGSQGTSGRGGLGGQGAGAAAAAGGAGQGGYGGLGSQGTSGRGGLGGQGAGAAAAAGGAGQGGYGGLGSQGTSGRGGLGGQGAGAAAAAGGAGQGGYGGLGSQGTSGRGGLGGQGAGAAAAAGGAGQGGYGGLGSQGTSGRGGLGGQGAGAAAAAGGAGQGGYGGLGSQGTSGRGGLGGQGAGAAAAAGGAGQGGYGGLGSQGTSGRGGLGGQGAGAAAAAGGAGQGGYGGLGSQGTSGRGGLGGQGAGAAAAAGGAGQGGYGGLGSQGTSGRGGLGGQGAGAAAAAGGAGQGGYGGLGSQGTSGRGGLGGQGAGAAAAAGGAGQGGYGGLGSQGTSGRGGLGGQGAGAAAAAGGAGQGGYGGLGSQGTSMAATSSMSVEFYNSNKAAQTNSITPIIKITNTADSDLNLNDVKVRYYYTSDGTQGQTFWGDHAGALLGNSYVDNTGKVTANFVKETASPTSTYDTYVEFGFASGAATLKKGQFITIQGRITKSDWSNYAQTNDYSFDASSSTPVVNPKVTGYIGGAKVLGTAPGPDVPSSIINPTSATFDLEHHHHHH", "values": [{"measurement": "binding result", "value": "binds"}]}]}
